The target in this experiment is death receptor 5 (DR5) on the cell surface (human) (UniProt O14763). Kind of experiment: cell-based or functional assay.

Take “wild-type TRAIL (recombinant human soluble TRAIL, amino acids 114-281) (from UniProt P50591 114-281) (ligand)”: the TRAIL-mediated death of Colo205 cells in the presence of neutralizing anti-DR5 antibody was determined as 3 fold and the incubation time of Colo205 cells with 30 ng/ml ligand needed for a comparable level of pro-caspase-8 processing (Western blot) was 60 min.

(Values after patent publication US20110165265A1, “TRAIL VARIANTS FOR TREATING CANCER” (FUNDACIÓ GENÒMICA (CRG), priority 2007, published 2011).)
